Test results as given in publication doi:10.1101/2025.10.04.680434.

Target: human 40S ribosomal subunit (human) (UniProt P62269)
Assay: cryo-EM structure

other: 40%
Substance: human eIF3 (from UniProt P55884 1-814; Q99613 1-913; O15371 1-548; O75821 1-320; Q13347 1-325) (complex)
